Reference: the RNAGym collection of RNA variant scans (doi:10.1073/pnas.2313332121)

B1: TPR t1 (parent)
chain: GACCAAUCUGCCCUCAGAGCUCGAGAACAUCUUCGGAUGCAGAGGAGGCAGGCUUCGGUGGCGCGAUAGCGCCAACGUCCUCAACCUCCAAUGCAUCCCACCACAUGAUGAUGCCUGAAGAGCCUUGGUUUUUUG

Variants of: B1
Assay: polymerase ribozyme fitness, log enrichment relative to wild type (log ratio); higher = more active; in vitro selection for triplet polymerase activity
How it was run: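 Libraries of mutants in each subunit of a heterodimeric triplet polymerase ribozyme were generated by PCR and transcribed. In triplicate, each went through one in vitro selection round: annealing with biotinylated primer, partner subunit and triplets; frozen incubation at −7 °C; gel excision of extended constructs; streptavidin-bead capture; RT-PCR. Fitness, taken from Illumina sequencing of input and output libraries, is the logarithm of a genotype's enrichment over wild-type enrichment, averaged across replicates with inverse-variance weights. The logarithm is base 2, and genotypes needed ≥10 input reads and ≥1 read per output to be kept.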

Compared with GACCAAUCUGACCUCAGAGCUCGAGAACAUCUUCGGAUGCAGAGGAGGCAGGCUUCGGUGGCGCGAUAGCGACAACGUCCUCAACCUCCAGUGCAUCCCAUCACAUGAUGAUCCCUGAAGAGCCUUGGUUUCUUG [C11A C72A A91G C101U G113C U132C], GACCAAUCUGACCUCAGAGCUCGAGAACAUCUUCGGAUGCAGAGGAGGUAGGCUUCGGUGGCGCGAUAGCGCCAACGUCCUCAACCUCCAAUACAUCCCACCACAUGAUGAUGCCUGAAGAGCCUUGGAUUUUUG [C11A C49U G93A U129A] is higher in “polymerase ribozyme fitness (log ratio)” value: -4.14 for the first, -3.29 for the second.

Going from GACCAAUCUGACCUCAGAGCUCGAGAACAUCUUCGGAUGCAGAGGAGGCAGGCUUCGGUGGCGCGAUAGCGCCAACGUCCUCAACCUCAAAUACAUCCCACCACAUGAUGAUGCCUGGAGAGCCUUGGUUUUUUG [C11A C89A G93A A118G] to GACCAAUCUGACCUCAGAGCUCGAGAACAUCUUCGGAUGCAGAGGAGGCAGGCUUCGGUGGCGCGAUAGCGUCAACGCCCUGAACCUCCAAUGCAUCCCAACACAUGAUGAUGCCUGAAGCGCCUUGGUUUUUUG [C11A C72U U78C C82G C101A A121C], the “polymerase ribozyme fitness (log ratio)” value rises from -3.96 to -0.882.

Compared with GACCAAUCUGACCUCAGAGCUCGAGAACAUCUUCGGAUGCAGAGGAGGCAGGCUUCGGUGGCGCGAUAGCGCCAACGUCCUCAAACUCCAAUGCAUCCCACCACAUGAUGAUGACUGAAGAGUCUUGGUUUUUUG [C11A C85A C114A C123U], GACCAAUCUGACCUCAGAGCUCGAGAACAUCUUCGGAUGCAGAGGAGGCAGGCUUCGGUGGCGCGAUAGCGCGAACGUCCUCAACCUCCAAUGCAUCCCACCACAUGAUGAUGCCUGAAGAGCCUUGGUUUUUUG [C11A C73G] is higher in “polymerase ribozyme fitness (log ratio)” value: -2.71 for the first, -1.79 for the second.

Compared with GACCAAUCUGACCUCAGAGCUCGAGAACAUCUUCGGAUGCAGAGGAGGUAGGCUUCGGUGGCGCGAUAGCGCCAACGUCCUCAAACUCCAAUGCAUCCCACCACAAGAUGAUGCCUGAAGAGCCUUGGUUUUUUG [C11A C49U C85A U106A], GACCAAUCUGACCUCAGAGCUCGAGAACAUCUUAGGAUGCAGAGGAGGCAGGCUUCGGUGGCGCGAUAGCGCCAACGUCCUCAACCUGCAAUGCAUCCCACCACACGAUGAUGCCUGAAGAGCCUUGGUUUUUUG [C11A C34A C88G U106C] is lower in “polymerase ribozyme fitness (log ratio)” value: -3.44 for the first, -5.02 for the second.

Going from GACCAAUCUGACCUCAGAGCUCGAGAACAUCUUCGGAUGCAGAGGAGGCAGGCUUCGGUGGCGCGAUAGCGCCAACGUCCUGAACCUCCAAUGCAUCCCAACACAUGAUGAUGCCUGAAGCGCCUUGGUUUUUUG [C11A C82G C101A A121C] to GACCAAUCUGACCUCAGAGCUCGAGAACAUCUUCGGAUGCAGAGGAGGCAGGCUUAGGUGGCGCGGUAGCGCCAACGUCCUCAAACUCCAAUGCAUCCCACCACAUGAUGAAGCCUGAAGAGCCUUGGUUUUUUG [C11A C56A A66G C85A U112A], the “polymerase ribozyme fitness (log ratio)” value falls from -0.28 to -4.09.

First: GACCAAUCUGACCUCAGAGCUCGAGAACAUCUUCGGAUGUAGAGAAGGCAGGCUUCGGUGGCGCGAUAGAGCCAACGUCCUCAACCUCCAAUGCAUCCCACCACAUGAUGAUGCCUGAACAGCCUUGGUUUUUUG [C11A C40U G45A C70A G120C]
Second: GACCAAUCUGACCUCAGAGCUCGAGAACAUCUUCGGAUGCAGAGGAGGUAGGCUUCGGUGGCGCGAUAGCGCCAACGUCCUCAACCUCCAAUGCAUCCCACAACAUGAUGAUGCCUGAAGAGCCUUGGUUUUUUG [C11A C49U C102A]
The “polymerase ribozyme fitness (log ratio)” value of the first is higher: -1.21 for the first, -3.16 for the second.

Going from GACCAAUCUGACCUCAGAGCUCGAGAACAUCUUCGGAUGCAGAGGAGGCAGGCUUCGGUGGCGCGAUAGCGCCAACGUUCUCAACCUCCAAUGCAUCCCACCACAUGAUGAUGCCUGAAAAGCCUUGGUUUUUUG [C11A C79U G120A] to GACCAAUCUGACCUCAGAGCUCGAGAACAUCUUCGGAUGCAGAGGAGGUAGGCUUCGGUGGCGCGAUAGCGCCAACGUCCUCAACCUCCAAUGGAUCCCACCACAUGAUGAUGCCUGAAGAGCCUUGGUUUUUUG [C11A C49U C94G], the “polymerase ribozyme fitness (log ratio)” value falls from 1.38 to -2.46.

First: GACCAAUCUGACCUCAGAGCUCGAGAACAUCUUCGGAUGCAGAGGAGGCAGGCUUAGGUGGCGCGAUAGCGCCAACGUCCUCAACCUCUAAUGCAUCCCACCACAUGAUGAUGCCUGAAGAGCCUUGGUUUUUUG [C11A C56A C89U]
Second: GACCAAUCUGACCUCAGAGCUCGAGAACAUCUUCGGAUGCAGAGGAGGCAGGCUUCGGUGGCGCGAUAGCGCCAACGUCCUCAAUCUCCAAUGCAUCCCACCACAUGAUGAUGCCUGAAGAGCCUUGGUUUUUUG [C11A C85U]
The “polymerase ribozyme fitness (log ratio)” value of the first is lower: -1.96 for the first, -1.28 for the second.

Going from GACCAAUCUGACCUCAGAGCUCGAGAACAUCUUCGGAUGCAGAGGAGGCAGGUUUCGGUGGCGCGAUAGCGCCAAUGUCGUCAACCUCCAAUGCAUCCCACCACAUGAUGAUGCCUCAAGAGCCUUGGUUUUUUG [C11A C53U C76U C80G G117C] to GACCAAUCUGACCUCAGAGCUCGAGAACAUCUUCGGAUGAAGAGGAGGCAGGCUUCGGUGGCGCGAUAGCGCCGACGUCCUCAACCUCCAAUGCAUCCCACCACAUGAUGAUGCCUGAAGAGCCUUGGUUUUUUU [C11A C40A A74G G135U], the “polymerase ribozyme fitness (log ratio)” value rises from -7.25 to -2.09.

Going from GACCAAUCUGACCUCAGAGCUCGAGAACAUCUUCGGAUGCAGAGGAGGCAGGCUUCGGUGGCGCGAUAGCGCCAACGUCGUCAACCUUCAAUGCAUCCCACCACAUGAUGAUGCCUGAAGAGCCUUGGUUUUUUG [C11A C80G C88U] to GACCAAUCUGACCUCAGAGCUCGAGAACAUCUUCGGAUGCAGAGGAGGCAGGUUUCGGUGGCGCGAUAGCGCCAACGUCCUCAACCUCCAAUGCAUCCCACCACAUGAUGAUGCCUGAAGAGCCUUGGAUUUUUG [C11A C53U U129A], the “polymerase ribozyme fitness (log ratio)” value rises from -6.42 to -2.66.

For GACCAAUCUGACCUCAGAGCUCGAGAACAUCUUCGGAUGCAGAGGAGGCAGGCUUGGGUGGCGCGAUAGCGCCAACGUCCUCAACCUCCAAUGCAUCCCACCACAUGAUGAUGCCUGAAGAGCCUUGGUUUUUUG [C11A C56G], the “polymerase ribozyme fitness (log ratio)” value was -1.77.
